Assay results published in the DeepSol protein solubility set.

Assay: soluble on expression in E. coli; label from the status in PepcDB or PDB records

Sequence | soluble on expression in E. coli
MGSDKIHHHHHHMTNLVTLENVSVAFGQRRVLSDISLALTPGKILTLLGPNGAGKSTLVRVVLGLVAPTEGVIKRDARLRIGYVPQKLHLDATLPLTVSRFLRLRPGTRKDDILPALKRVQAGHLIDAPMQKLSGGETQRVLLARALLNRPQLLVLDEPTQGVDVNGQVALYDLINQLRHELDCAVLMVSHDLHLVMAKTDEVLCLNQHICCSGAPEVVSMHPEFISMFGPRGAEQLGIYRHHHNHRHDLQGRIVLRRGNSR | not soluble
MNLLKTIEKVKANWGGKYFSIEFVKNPKKVVRDWRNSGGIVVHLTMYGIPIDNIMEKIINKNTKILVVVGSEKVEGWYYYNSDYNIAIGNQPHSEVAALAIFLDRIYKGGELNIQFSDAKLSIIPQERGKKVRKNE | soluble
MGHHHHHHMEARNMTPFTYFSLPMQKLFLRNQAAVRNKPYAKYFRSEMRVPLSAVRKIQQGPMALEDTLTPSIEDINRLLEPDFVSEESGYALLPGPMAYVQSRKFFPGCTAQMFKWWFIWHPAESERYTLWFPYAHVSNPCVHHQRLRDESLSFEERLYGNTFCASEYVGDRLMHLHIDFQQPASLGLNTDLYREAKIDGSVSALMSLADHPEVPVSLMVHLFKEVPDGMYLTSRYWVGAHPSMARFPGAEKAASLLKENGFGEAELETLAYEFAVHDMCEFNHLASFLPDLYREFGTPAA | soluble
MPMISCDMAYGRTDEQKRALSAGLLRVISEATGEPRENIFFVIREGSGINFVEHGEHLPDYVPGNANDKALIAKLK | soluble
MKDLGAEHLAGHEGVQLLGLLNVYLEQEERFQPREKGLSLIEATPENDNTLCPGLRNAKVEDLRSLANFFGSCTETFVLAVNILDRFLALMKVKPKHLSCIGVCSFLLAARIVEEDCNIPSTHDVIRISQCKCTASDIKRMEKIISEKLHYELEATTALNFLHLYHTIILCHTSERKEILSLDKLEAQLKACNCRLIFSKAKPSVLALCLLNLEVETLKSVELLEILLLVKKHSKINDTEFFYWRELVSKCLAEYSSPECCKPDLKKLVWIVSRRTAQNLHNSYYSVPELPTIPEGGCFDESESEDSCEDMSCGEESLSSSPPSDQECTFFFNFKVAQTLCFPSLEHHHHHH | not soluble
MSQTAAPLAQLNAMDTAQFVRTLGGIYEHSPWVAEQAAGQRPFASADALAAAMRRAVDGAGEGPQLKLVRAHPELAGKAAVRGELTAESTREQASAGLDQCSPEEFARLQALNARYNDKFGFPFILAVRGYDRHGIIDVFARRLENDRATELRASLEQIHRIAGFRLHDLISGKLAAALEHHHHHH | not soluble
MTTHTGGCQCGAVRFRATGDLQDSSICHCRMCQKAFGAYYAPLVSVRNVEFEWTRGEPKRFQSSSVVKRGFCPECGTPLTYEAPDGVAVAAGAFDDPAALPPTIQWGVERKIDFVDTLHTLPAVATEDDLTQVDYLTNLVSYQHPDHDTENWPPEKR | not soluble
MIYINLYNSNQMTKGILIAGTHSGVGKTTVSMGIMAALKHRQLKVQPYKVGPDYIDPSHHTAICGRPSRNLDTYLMGTEGVRQTVARTSADADIAVVEGVMGLFDGIDSTEVASSAHVAKTLDIPVILVINVHGMSRSAAALLKGYSEFDPEVRVAGVILNQVGSPRHAELVKNSLPGNIPIIGTIPRRKDIEVPSRHLGLYMAHEK | not soluble
MGSDKIHHHHHHMHPKNAWYVACTADEVADKPLGRQICNEKMVFYRDQNQQVVAVEDFCPHRGAPLSLGYVENGQLVCGYHGLVMGGDGKTASMPGQRVRGFPCNKTFAAIERYGFIWVWPGEREKADPALIHHLEWAVSDEWAYGGGLFHIQCDYRLMIDNLMDLTHETYVHASSIGQKEIDEAPPVTTVEGEEVITARHMENIMPPPFWKMALRGNNLADDVPVDRWQICRFTPPSHVLIEVGVAHAGKGGYHAPHEFKASSIVVDFITPETDTSIWYFWGMARNFKPADEQLTATIREGQHKIFSEDLEMLERQQLNLLQHPHRNLLKLNIDAGGVQSRKILERLIAAEQADTADQIPVAAVK | not soluble
MSLAHEMIGTQIVTERLVALLESGTEKVLLIDSRPFVEYNTSHILEAININCSKLMKRRLQQDKVLITELIQHSAKHKVDIDCSQKVVVYDQSSQDVASLSSDCFLTVLLGKLEKSFNSVHLLAGGFAEFSRCFPGLCEGKSTLVPTCISQPCLPVANIGPTRILPNLYLGCQRDVLNKELMQQNGIGYVLNASNTCPKPDFIPESHFLRVPVNDSFCEKILPWLDKSVDFIEKAKASNGCVLVHCLAGISRSATIAIAYIMKRMDMSLDEAYRFVKEKRPTISPNFNFLGQLLDYEKKIKNQTEGHHHHHH | soluble
MDIQIKRAYEPADPADGCRILVDRLWPRGLTKQQVACDLWLKEIAPTADLRKWFNHDPAKWAEFQRRYRDELSVNPCVKELLDRAAKGRLTLLYGARDAECNQAVVLRDYLLERN | not soluble
MAPEAQVSVQPNFQQDKFLGRWFSAGLASNSSWLREKKAALSMCKSVVAPATDGGLNLTSTFLRKNQCETRTMLLQPAGSLGSYSYRSPHWGSTYSVSVVETDYDQYALLYSQGSKGPGEDFRMATLYSRTQTPRAELKEKFTAFCKAQGFTEDTIVFLPQTDKCMTEQAHHHHHH | soluble
MLMFDPVPVKQEAMDPVSVSYPSNYMESMKPNKYGVIYSTPLPEKFFQTPEGLSHGIQMEPVDLTVNKRSSPPSAGNSPSSLKFRSSHRRASPGLSMPSSSPPIKKYSPPSPGVQHFGVPLSMPPVMAAALSRHGIRSPGILPVIQPVVVQPVPFMYTSHLQQPLMVSLSEEMENSSSSMQVPVIESYEKPISQKKIKIEPGIEPQRTDYYPEEMSPPLMNSVSPPQALLQE | soluble
SSSTSHSSLKSPSHMEKYPQKEKTKEDLDSRSNLHLPETKFSELSKLKNDDMEKANHIESVIKSNLPNCANSDTDFMGLFKSSRYDPSISFSGMSLSDTMTLRGSVQNKLNPRPGKVVIYSEPDVSEKCIEVFSDIQDCSSWSLSPVILIKVVRGCWILYEQPNFEGHSIPLEEGELELSGLWGIEDILERHEEAESDKPVVIGSIRHVVQDYRVSHIDLFTEPEGLGILSSYFDDTEEMQGFGVMQKTCSMKVHWGTWLIYEEPGFQGVPFILEPGEYPDLSFWDTEAAYIGSMRPLKMGGRKVEFPTDPKVVVYEKPFFEGKCVELETGMCSFVMEGGETEEATGDDHLPFTSVGSMKVLRGIWVAYEKPGFTGHQYLLEEGEYRDWKAWGGYNGELQSLRPILGDFSNAHMIMYSEKNFGSKGSSIDVLGIVANLKETGYGVKTQSINVLSGVWVAYENPDFTGEQYILDKGFYTSFEDWGGKNYKISSVQPICLDSFTGPRRRNQIHLFSEPQFQGHSQSFEETTSQIDDSFSTKSCRVSGGSWVVYDGENFTGNQYVLEEGHYPCLSAMGCPPGATFKSLRFIDVEFSEPTIILFEREDFKGKKIELNAETVNLRSLGFNTQIRSVQVIGGIWVTYEYGSYRGRQFLLSPAEVPNWYEFSGCRQIGSLRPFVQKRIYFRLRNKATGLFMSTNGNLEDLKLLRIQVMEDVGADDQIWIYQEGCIKCRIAEDCCLTIVGSLVTSGSKLGLALDQNADSQFWSLKSDGRIYSKLKPNLVLDIKGGTQYDQNHIILNTVSKEKFTQVWEAMVLYT | soluble
GPGSMNRLFGRKKDTQKPTLEDASVKIGARCDAVDARVSKIDAELAKLKECIQRTTGATQQRHKQRAIQLLQQKRLYQNQQDVLMQQQFNIDQLQFTTESVKDAKLQVDAMKDATKTLKREFKKMSVADVEKLQDELLNLYEDAQYVQEAMGRSYDVPDSIDEDEMLGELEALAMQSGNEADSSYLSDALAMPSGRLPDLMSNTQQQQETETPDPYKLETQLGL | not soluble
MNTRSSLSEEQREQLVGLCEQDLDFTTTASRIGGRHTLARSLYHCWLLHGRLCLVEKPTKKHYSFEIKKEVVDRFLAGETRMNLAKEFKLSSPQQVKDWVSKWHKRR | not soluble
